Key:
[1] = test system: histamine-dependent itch in mice; assay: Histamine-induced itch in mice; type: in vivo, mouse; conditions: i.v. cilengitide 100 nM 10 minutes prior to histamine 100 μg/10 μl
Procedure: (§1) All behavioral experiments were conducted during the light cycle at ambient temperature (23° C.). Behavioral assessment of scratching behavior was conducted as described previously (Mishra et al., 2011). Briefly, mice were injected intradermal into the nape of the neck with periostin (R&D), histamine, and chloroquine (all Millipore-Sigma) as previously described (Shimada and LaMotte, 2008). Compounds were diluted in PBS and the same was used as a vehicle. […] Additionally, cilengitide and periostin were combined together (mix) and injected i.d. into the dorsal neck of mouse. Scratching behavior was recorded for 30 minutes and data was presented in bouts per 30 minutes for mice. […] For eye wipes assay, periostin and capsaicin were dropped on mouse cornea and counted wipes for 1-minute. […] For dog's study, periostin (25 μg/25 μl) was injected in the dorsal neck (s.c.) and behavior was recorded and quantified for 30 minutes as “duration of pruritus manifestation” (DPM), as described earlier (Paps et al., 2016). […] When different raters separately scored a single tape, the ratings indicated high interrater reliability (coefficient of correlation, r>0.95). This method of itch readout in NHP has been used and accepted (Ko and Naughton, 2000). The behavior was recorded for 30 minutes duration and number of scratches quantified. […]

[2] = test system: MC903-induced spontaneous chronic itch in mice; assay: MC903-induced mouse model of atopic dermatitis, spontaneous scratching; type: in vivo; conditions: cilengitide 100 nM by tail vein injection, Day 10
Procedure: C57BL6 mice (Jackson Labs, Ellsworth, Maine, United States of America) were applied daily with MC903 (4 nmol) and vehicle (97% ethanol) after brief anesthesia. Skin thickness was measured using cutimeter as described (Fukuyama et al., 2015). Scratching behavior was video-monitored for 30 min on Day 1 and Day 7. On Day 7 skin was collected from vehicle and MC903 treated mice for the Western Blot (WB) as described below. NC/Nga mice (Charles River, Yokohama, Japan) were sensitized and challenged with house dust mite (HDM) allergen (Dermatophagoides farina, Greer, Lenoir, N.C., United States of Amercia) as described previously (Fukuyama et al., 2018). […] Scratching behavior was video monitored for 60 min period immediately after HDM on day 42. […] The amount of periostin was determined using ELISA according to the manufacturer's instruction.
A mouse model of atopic dermatitis in mice is generated. […] At Day 10, vehicle or the compound (at least one dose) is administered intravenous/orally to the animals, and then measured the scratching behaviors for at least 60 min. In order to see the sub-chronic effect of the compound, vehicle and the compound is administered to MC903-treated animals for several days and the alteration of the scratching behaviors is measured.

[3] = test system: C57BL6J mice; assay: Mouse cheek itch/pain model; type: in vivo; conditions: periostin 5 μg/20 μl into the cheek
Procedure: as §1

[4] = test system: Mouse bone marrow-derived mast cells; assay: Mast cell degranulation (β-hexoseaminidase release); type: cell-based; conditions: increasing concentrations, 30 minutes challenge
Procedure: Mouse bone marrow-derived mast cells were cultured from femurs of C57B1/6J mice as described (Jensen et al., 2006). Degranulation was assessed by measuring β-hexoseaminidase release as described (Cruse et al., 2013) using mast cells sensitized with 100 ng/mL anti-DNP IgE (SPE7 clone) (Sigma Aldrich, St. Louis, Miss., United States of America) for 16 hours, before the cells were challenged for 30 minutes with the indicated stimulus.

| Molecule | histamine-induced itch (scratching bouts per 30 minutes) [1] | MC903-induced spontaneous itching [2] | scratching behavior, cheek injection [3] | wiping (pain behavior), cheek injection ([3]; compared to capsaicin) | degranulation of anti-DNP IgE-sensitized mast cells [4] |
| --- | --- | --- | --- | --- | --- |
| CC(C)[C@H]1C(=O)N[C@@H](CCCN=C(N)N)C(=O)NCC(=O)N[C@@H](CC(=O)O)C(=O)N[C@H](Cc2ccccc2)C(=O)N1C [cilengitide, cyclo RGDf-n(Me)V] | inhibits | significantly reduced |  |  |  |
| periostin: fasciclin extracellular matrix protein, endogenous ligand of integrin αvβ3; mouse recombinant used (protein) NSYYDKVLAHSRIRGRDQGPNVCALQQILGTKKKYFSSCKNWYQGAICGKKTTVLYECCPGYMRMEGMKGCPAVMPIDHVYGTLGIVGATTTQHYSDVSKLREEIEGKGSYTYFAPSNEAWENLDSDIRRGLENNVNVELLNALHSHMVNKRMLTKDLKHGMVIPSMYNNLGLFINHYPNGVVTVNCARVIHGNQIATNGVVHVIDRVLTQIGTSIQDFLEAEDDLSSFRAAAITSDLLESLGRDGHFTLFAPTNEAFEKLPRGVLERIMGDKVASEALMKYHILNTLQCSEAITGGAVFETMEGNTIEIGCEGDSISINGIKMVNKKDIVTKNGVIHLIDEVLIPDSAKQVIELAGKQQTTFTDLVAQLGLASSLKPDGEYTLLAPVNNAFSDDTLSMDQRLLKLILQNHILKVKVGLSDLYNGQILETIGGKQLRVFVYRTAICIENSCMVRGSKQGRNGAIHIFREIIQPAEKSLHDKLRQDKRFSIFLSLLEAADLKDLLTQPGDWTLFAPTNDAFKGMTSEERELLIGDKNALQNIILYHLTPGVYIGKGFEPGVTNILKTTQGSKIYLKGVNETLLVNELKSKESDIMTTNGVIHVVDKLLYPADIPVGNDQLLELLNKLIKYIQIKFVRGSTFKEIPMTVYRPAMTKIQIEGDPDFRLIKEGETVTEVIHGEPVIKKYTKIIDGVPVEITEKQTREERIITGPEIKYTRISTGGGETGETLQKFLQKEVSKVTKFIEGGDGHLFEDEEIKRLLQGDTPAKKIPANKRVQGPRRRSREGRSQ |  |  | robust scratching behavior similar to that of histamine | did not induce wiping | no degranulation |

— US20220370545A1, “INTEGRIN RECEPTOR ALPHA V BETA 3 AND ITS LIGAND INVOLVED IN CHRONIC ITCH” (North Carolina State University, priority 2019, published 2022)
